Measurements: article PMC8277574 (2021)

B1: human MUSK Fz domain and C-terminal flanking sequence (K314 to T495), Avi-His6, biotinylated (domain or fragment)
chain: KGYCAQYRGEVCNAVLAKDALVFLNTSYADPEEAQELLVHTAWNELKVVSPVCRPAAEALLCNHIFQECSPGVVPTPIPICREYCLAVKELFCAKEWLVMEEKTHRGLYRSEMHLLSVPECSKLPSMHWDPTACARLPHLDYNKENLKTFPPMTSSKPSVDIPNLPSSSSSSFSVSPTYSMT
modifications: biotin (on the Avi tag, BirA in vitro)
B3: mouse MUSK Fz domain and C-terminal flanking sequence (D307 to T494), Avi-His6, biotinylated (domain or fragment)
chain: DSQGYCAQYRGEVCDAVLAKDALVFFNTSYRDPEDAQELLIHTAWNELKAVSPLCRPAAEALLCNHLFQECSPGVVPTPMPICREYCLAVKELFCAKEWQAMEGKAHRGLYRSGMHLLPVPECSKLPSMHRDPTACTRLPYLDYKKENITTFPSITSSRPSADIPNLPASTSSFAVSPAYSMT
modifications: biotin (on the Avi tag, BirA in vitro)
B4: mouse MUSK full-length extracellular region (E22 to T494), Avi-His6, biotinylated (domain or fragment)
chain: EKLPKAPVITTPLETVDALVEEVATFMCAVESYPQPEISWTRNKILIKLFDTRYSIRENGQLLTILSVEDSDDGIYCCIANNGVGGAVESCGALQVKMKPKITRPPINVKIIEGLKAVLPCTTMGNPKPSVSWIKGDNALRENSRIAVLESGSLRIHNVQKEDAGQYRCVAKNSLGTAYSKLVKLEVEVFARILRAPESHNVTFGSFVTLRCTAIGIPVPTISWIENGNAVSSGSIQESVKDRVIDSRLQLFITKPGLYTCIATNKHGEKFSTAKAAATVSIAEWSKSQKDSQGYCAQYRGEVCDAVLAKDALVFFNTSYRDPEDAQELLIHTAWNELKAVSPLCRPAAEALLCNHLFQECSPGVVPTPMPICREYCLAVKELFCAKEWQAMEGKAHRGLYRSGMHLLPVPECSKLPSMHRDPTACTRLPYLDYKKENITTFPSITSSRPSADIPNLPASTSSFAVSPAYSMT
modifications: biotin (on the Avi tag, BirA in vitro)
B5: human MUSK full-length extracellular region (E22 to T495), Avi-His6, biotinylated (domain or fragment)
chain: EKLPKAPVITTPLETVDALVEEVATFMCAVESYPQPEISWTRNKILIKLFDTRYSIRENGQLLTILSVEDSDDGIYCCTANNGVGGAVESCGALQVKMKPKITRPPINVKIIEGLKAVLPCTTMGNPKPSVSWIKGDSPLRENSRIAVLESGSLRIHNVQKEDAGQYRCVAKNSLGTAYSKVVKLEVEVFARILRAPESHNVTFGSFVTLHCTATGIPVPTITWIENGNAVSSGSIQESVKDRVIDSRLQLFITKPGLYTCIATNKHGEKFSTAKAAATISIAEWSKPQKDNKGYCAQYRGEVCNAVLAKDALVFLNTSYADPEEAQELLVHTAWNELKVVSPVCRPAAEALLCNHIFQECSPGVVPTPIPICREYCLAVKELFCAKEWLVMEEKTHRGLYRSEMHLLSVPECSKLPSMHWDPTACARLPHLDYNKENLKTFPPMTSSKPSVDIPNLPSSSSSSFSVSPTYSMT
modifications: biotin (on the Avi tag, BirA in vitro)

Tests used:
Test in all cases: FACS
[1] = target: X3 hIgG
[2] = target: X2 hIgG
[3] = target: X17 hIgG
[4] = target: X3 mIgG
[5] = target: B4
[6] = target: B3
[7] = target: B1
[8] = target: B5

Work on B1 yielded a Kd [1] of 0.057 nM, a Kd [2] of 0.421 nM and a Kd [3] of 0.56 nM. It also gave a Kd [4] of 0.079 nM.

B2: MUSK agonist antibody X17, mouse IgG2a-LALAPG format (antibody, V domains shown)
VH: EVQLVESGGGLVQPGGSLRLSCAASGFTISYSSIHWVRQAPGKGLEWVASIYSSSGSTYYADSVKGRFTISADTSKNTAYLQMNSLRAEDTAVYYCARGDHGYYVFGYLGMDYWGQGTLVTVSS
VL: DIQMTQSPSSLSASVGDRVTITCRASQSVSSAVAWYQQKPGKAPKLLIYSASSLYSGVPSRFSGSRSGTDFTLTISSLQPEDFATYYCQQSYKPGALITFGQGTKVEIK
In the case of B2, the Kd [5] is reported as 1.1 nM, the Kd [6] is reported as 0.74 nM and the Kd [7] is reported as 0.61 nM. For the same binder, the Kd [8] was 0.97 nM.

Binder B3 has a Kd [1] of 0.07 nM, a Kd [2] of 0.265 nM and a Kd [3] of 0.68 nM. For the same binder, the Kd [4] was 0.096 nM.

With B4 the Kd [1] was 0.079 nM, the Kd [2] was 0.307 nM and the Kd [3] was 1.04 nM. The Kd [4] was 0.118 nM.

B5 was tested, and the Kd [1] was 0.074 nM, the Kd [2] was 0.478 nM and the Kd [3] was 0.86 nM. It also gave a Kd [4] of 0.113 nM.
